This is an account of results in patent US20230159612A1 (MEDIGENE IMMUNOTHERAPIES, published 2023).

The target in test [1] is T1, MAGE-A4GVY-MHC-multimer (MAGE-A4 230-239, …; immuneAware) (human).
T1 construct: Bought reagent (immuneAware); also called GVY-specific tetramer
Briefly: flow cytometry, multimer staining of TCR-transduced CD8+ T cells, gated on live CD8+/mCb+ cells. From the text:
Transduced CD8+ T cells were enriched by FACS using the murine constant beta region as a marker for transduction. After expansion of these cells, they were stained with an MAGE-A4GVY-MHC-multimer and antibodies against CD8 and the murine constant beta region (mmCb) and analyzed by flow cytometry. Populations were gated on live CD8+/mCb+ cells and staining of multimer/CD8 is shown.
They were stained with a MAGE-A4GVY-MHC-multimer (MAGE-A4²³⁰⁻²³⁹, […]; immuneAware) and antibodies against CD8 and the murine constant beta region. All MAGE-A4-TCR-transgenic T cell populations bound the MAGE-A4GVY-MHC-multimer very efficiently (>70%).

The target of test [2] is T1, MAGE-A4GVY-MHC-multimer (MAGE-A4 …). Briefly: flow cytometry, multimer staining of TCR-transduced CD3+ T cells, gated on live CD3+ cells. An excerpt: After expansion of these cells, they were stained with a MAGE-A4GVY-MHC-multimer and antibody against CD3 and analyzed by flow cytometry. Populations were gated on live CD3+ cells and multimer staining.
After expansion, the transduced T cells were stained with a MAGE-A4GVY-MHC-multimer (MAGE-A4²³⁰⁻²³⁹, […]; immuneAware) and antibodies against CD3. Populations were gated on live CD3⁺ cells and multimer staining. All MAGE-A4-TCR-transgenic T cell populations bound the MAGE-A4GVY-MHC-multimer very efficiently (>70%).

Where only a bound is given, the exact number is not on record here.

B1: TCR-2 containing murinized Cα and Cβ regions (TCR)
TCR alpha: AQKITQTQPGMFVQEKEAVTLDCTYDTSDPSYGLFWYKQPSSGEMIFLIYQGSYDQQNATEGRYSLNFQKARKSANLVISASQLGDSAMYFCAMSGGYTGGFKTIFGAGTRLFVKANIQNPEPAVYQLKDPRSQDSTLCLFTDFDSQINVPKTMESGTFITDKTVLDMKAMDSKSNGAIAWSNQTSFTCQDIFKETNATYPSSDVPCDATLTEKSFETDMNLNFQNLSVMGLRILLLKVAGFNLLMTLRLWSS
TCR beta: DSGVTQTPKHLITATGQRVTLRCSPRSGDLSVYWYQQSLDQGLQFLIQYYNGEERAKGNILERFSAQQFPDLHSELNLSSLELGDSALYFCASSGGDGDEQFFGPGTRLTVLEDLRNVTPPKVTLFEPSKAEIANKQKATLVCLARGFFPDHVELSWWVNGKEVHSGVSTDPQAYKESNYSYCLSSRLRVSATFWHNPRNHFRCQVQFHGLSEEDKWPEGSPKPVTQNISAEAWGRADCGITSASYHQGVLSATILYEILLGKATLYAVLVSGLVLMAMVKKKNS
notes: Expressed on the surface of retrovirally transduced human CD8+ T cells; Human variable regions with murine constant regions; also called MAGE-A4-TCR
For the molecule B1, the “percent of cells stained by the multimer” value in test [1] was over 70%.

B2: TCR-1 containing murinized Cα and Cβ regions (TCR)
TCR alpha: AQKITQTQPGMFVQEKEAVTLDCTYDTSDQSYGLFWYKQPSSGEMIFLIYQGSYDEQNATEGRYSLNFQKARKSANLVISASQLGDSAMYFCAMSGDSAGNMLTFGGGTRLMVKPHIQNPEPAVYQLKDPRSQDSTLCLFTDFDSQINVPKTMESGTFITDKTVLDMKAMDSKSNGAIAWSNQTSFTCQDIFKETNATYPSSDVPCDATLTEKSFETDMNLNFQNLSVMGLRILLLKVAGFNLLMTLRLWSS
TCR beta: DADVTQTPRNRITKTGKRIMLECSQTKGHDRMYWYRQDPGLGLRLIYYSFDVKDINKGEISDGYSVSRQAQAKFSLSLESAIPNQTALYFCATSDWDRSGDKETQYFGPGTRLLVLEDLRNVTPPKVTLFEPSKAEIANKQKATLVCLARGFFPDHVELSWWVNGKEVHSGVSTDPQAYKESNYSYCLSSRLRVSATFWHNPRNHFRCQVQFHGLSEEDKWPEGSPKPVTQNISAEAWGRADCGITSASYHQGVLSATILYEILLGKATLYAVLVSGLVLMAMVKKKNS
notes: as for B1
As to B2, the “percent of cells stained by the multimer” value in test [1] is over 70%.

B3: TCR-3 containing murinized Cα and Cβ regions (TCR)
TCR alpha: GENVEQHPSTLSVQEGDSAVIKCTYSDSASNYFPWYKQELGKRPQLIIDIRSNVGEKKDQRIAVTLNKTAKHFSLHITETQPEDSAVYFCAASRGTGFQKLVFGTGTRLLVSPNIQNPEPAVYQLKDPRSQDSTLCLFTDFDSQINVPKTMESGTFITDKTVLDMKAMDSKSNGAIAWSNQTSFTCQDIFKETNATYPSSDVPCDATLTEKSFETDMNLNFQNLSVMGLRILLLKVAGFNLLMTLRLWSS
TCR beta: DTAVSQTPKYLVTQMGNDKSIKCEQNLGHDTMYWYKQDSKKFLKIMFSYNNKELIINETVPNRFSPKSPDKAHLNLHINSLELGDSAVYFCASSQFWDGAGDEQYFGPGTRLTVTEDLRNVTPPKVTLFEPSKAEIANKQKATLVCLARGFFPDHVELSWWVNGKEVHSGVSTDPQAYKESNYSYCLSSRLRVSATFWHNPRNHFRCQVQFHGLSEEDKWPEGSPKPVTQNISAEAWGRADCGITSASYHQGVLSATILYEILLGKATLYAVLVSGLVLMAMVKKKNS
notes: as for B1
For the molecule B3, in test [1], the “percent of cells stained by the multimer” value is over 70%.

B4: MAGE-A4 TCR-5 (fully human TCR) (TCR)
TCR alpha: AQKITQTQPGMFVQEKEAVTLDCTYDTSDPSYGLFWYKQPSSGEMIFLIYQGSYDQQNATEGRYSLNFQKARKSANLVISASQLGDSAMYFCAMSGGYTGGFKTIFGAGTRLFVKANIQNPDPAVYQLRDSKSSDKSVCLFTDFDSQTNVSQSKDSDVYITDKTVLDMRSMDFKSNSAVAWSNKSDFACANAFNNSIIPEDTFFPSPESSCDVKLVEKSFETDTNLNFQNLSVIGFRILLLKVAGFNLLMTLRLWSS
TCR beta: DSGVTQTPKHLITATGQRVTLRCSPRSGDLSVYWYQQSLDQGLQFLIQYYNGEERAKGNILERFSAQQFPDLHSELNLSSLELGDSALYFCASSGGDGDEQFFGPGTRLTVLEDLKNVFPPEVAVFEPSEAEISHTQKATLVCLATGFYPDHVELSWWVNGKEVHSGVSTDPQPLKEQPALNDSRYCLSSRLRVSATFWQNPRNHFRCQVQFYGLSENDEWTQDRAKPVTQIVSAEAWGRADCGFTSESYQQGVLSATILYEILLGKATLYAVLVSALVLMAMVKRKDSRG
notes: no leader limits stated
On to B4, for which, in test [2], the “percent of cells stained by the multimer” value is over 70%.

B5: MAGE-A4 TCR-6 (fully human TCR) (TCR)
TCR alpha: GENVEQHPSTLSVQEGDSAVIKCTYSDSASNYFPWYKQELGKRPQLIIDIRSNVGEKKDQRIAVTLNKTAKHFSLHITETQPEDSAVYFCAASRGTGFQKLVFGTGTRLLVSPNIQNPDPAVYQLRDSKSSDKSVCLFTDFDSQTNVSQSKDSDVYITDKTVLDMRSMDFKSNSAVAWSNKSDFACANAFNNSIIPEDTFFPSPESSCDVKLVEKSFETDTNLNFQNLSVIGFRILLLKVAGFNLLMTLRLWSS
TCR beta: DTAVSQTPKYLVTQMGNDKSIKCEQNLGHDTMYWYKQDSKKFLKIMFSYNNKELIINETVPNRFSPKSPDKAHLNLHINSLELGDSAVYFCASSQFWDGAGDEQYFGPGTRLTVTEDLNKVFPPEVAVFEPSEAEISHTQKATLVCLATGFFPDHVELSWWVNGKEVHSGVSTDPQPLKEQPALNDSRYCLSSRLRVSATFWQNPRNHFRCQVQFYGLSENDEWTQDRAKPVTQIVSAEAWGRADCGFTSVSYQQGVLSATILYEILLGKATLYAVLVSALVLMAMVKRKD
notes: no leader limits stated
Take B5: the “percent of cells stained by the multimer” value in test [2] is over 70%.

B6: MAGE-A4 TCR-4 (fully human TCR) (TCR)
TCR alpha: AQKITQTQPGMFVQEKEAVTLDCTYDTSDQSYGLFWYKQPSSGEMIFLIYQGSYDEQNATEGRYSLNFQKARKSANLVISASQLGDSAMYFCAMSGDSAGNMLTFGGGTRLMVKPHIQNPDPAVYQLRDSKSSDKSVCLFTDFDSQTNVSQSKDSDVYITDKTVLDMRSMDFKSNSAVAWSNKSDFACANAFNNSIIPEDTFFPSPESSCDVKLVEKSFETDTNLNFQNLSVIGFRILLLKVAGFNLLMTLRLWSS
TCR beta: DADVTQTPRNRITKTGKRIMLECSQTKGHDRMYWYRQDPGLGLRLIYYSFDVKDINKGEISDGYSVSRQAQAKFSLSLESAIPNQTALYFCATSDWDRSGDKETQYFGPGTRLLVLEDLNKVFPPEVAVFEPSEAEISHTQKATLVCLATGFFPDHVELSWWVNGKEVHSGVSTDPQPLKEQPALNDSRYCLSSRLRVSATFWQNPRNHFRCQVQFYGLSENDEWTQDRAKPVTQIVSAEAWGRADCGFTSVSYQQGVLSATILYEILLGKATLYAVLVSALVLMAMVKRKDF
notes: no leader limits stated
On to B6, for which, in test [2], the “percent of cells stained by the multimer” value is over 70%.
